In experiment [1] the target is T1, recombinant human TSLP (human, UniProt Q969D9 29-159). Kind of experiment: cell-based or functional assay.
In experiment [2] the target is naturally-secreted human TSLP (human, UniProt Q969D9 29-159). Kind of experiment: cell-based or functional assay.
The target of experiment [3] is T2, recombinant cynomolgus monkey TSLP (cynomolgus monkey, UniProt Q969D9 29-159 (human entry), limits assumed).
T2 chain: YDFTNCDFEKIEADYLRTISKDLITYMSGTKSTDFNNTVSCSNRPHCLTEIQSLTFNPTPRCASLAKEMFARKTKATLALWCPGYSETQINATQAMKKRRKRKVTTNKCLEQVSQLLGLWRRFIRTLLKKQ
In words: cell-based or functional assay.

Experiment [4] concerns the target T1, recombinant human TSLP. Kind of experiment: solution equilibrium titration (SET), MSD electrochemiluminescence.
Protocol: (§1) The Fab was incubated at a constant concentration with serial dilutions of the respective antigens. The binding affinity was extracted from a competition curve which was generated by plotting the read-out of the concentration of unbound antibody against the applied antigen concentration.
(§2) A 384-well MSD array MTP was coated o/n at 4° C. with 30 μl/well of hsTSLP (produced in E. coli) diluted in PBS at 5 μg/ml, then washed three times with 70 μl/well of wash buffer and blocked with 50 μl/well of blocking buffer for 1 h at RT on a shaker. After washing, a volume of 30 μl/well of the equilibrated antigen-Fab mix was transferred from the polypropylene MTP to the coated MSD plate and incubated for 20 min at RT.
Experiment [5] addresses T3, recombinant mouse TSLP (mouse, UniProt Q9JIE6 20-140).
T3 construct: Bought from R&D Systems (MW 15 kDa); also called mTSLP; murine TSLP
T3 sequence: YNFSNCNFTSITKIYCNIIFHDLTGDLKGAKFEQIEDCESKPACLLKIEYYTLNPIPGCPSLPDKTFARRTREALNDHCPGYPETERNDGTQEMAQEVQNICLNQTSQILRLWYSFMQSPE
In words: Biacore SPR, Fab1 captured on a human Fab binder CM5 chip, TSLP injected. On the technique in general: In SPR one partner is held on a chip, and binding of the other changes the refractive index at the surface.
Protocol: Human Fab binder was immobilized on all four flow cells of a CM5 chip using a Human Fab Capture kit following manufacturer's instructions. A contact time of 360 seconds at a flow rate of 10 uL/min was specified. The temperature of the sample compartment was 10° C. and analysis temperature was 25° C.; prior to immobilization, the CM5 chip was primed with HBS-EP+ and normalized with BIAnormalizing solution. 375 uL of 20 ug/mL human Fab binder was prepared by combining 15 uL 0.5 mg/mL stock with 360 uL pH5 immobilization buffer (both provided in Human Fab Capture kit).
The temperature of the sample compartment was 10° C. and analysis temperature was 25° C. […] Regeneration of the Fab binder surface was achieved after each cycle by injecting 10 mM glycine-HCl, pH 2.0 for 60 s at 10 uL/min, followed by an extra wash with HBS-EP+ buffer. The temperature of the sample compartment was 10° C. and analysis temperature was 25° C.

Experiment [6] deals with T4, human TSLP (HEK) (human, UniProt Q969D9 29-159).
T4 construct: also called human TSLP (produced in HEK cells)
In words: solution equilibrium titration (SET), antigen titrated in solution, free Fab read on an E. coli hsTSLP-coated MSD plate, mean of 3 experiments ± SD.
Protocol: as §1, §2

For experiment [7], the target named is T2, recombinant cynomolgus monkey TSLP. The description is as above.
Protocol: as §1, §2
For experiment [8], the target named is T5, His6-PreSc-TSLP (recombinant human TSLP used in crystallography) (human).
T5 construct: also called TSLP (chain T)
In words: complex purified by size-exclusion chromatography and solved by X-ray crystallography. On the technique in general: SEC sorts molecules by how far they enter the pores of the column.
Protocol: The peak fraction was concentrated to 9.2 mg/ml by ultrafiltration and submitted to crystallization screening.

The source of these data is patent publication US20200325218A1 (Novartis, published 2020).

What is called Kd is the free concentration of one partner at which half of the binding sites on the other are occupied at equilibrium, for simple one-to-one binding.

T5 sequence (chain, as listed by the source limits assumed): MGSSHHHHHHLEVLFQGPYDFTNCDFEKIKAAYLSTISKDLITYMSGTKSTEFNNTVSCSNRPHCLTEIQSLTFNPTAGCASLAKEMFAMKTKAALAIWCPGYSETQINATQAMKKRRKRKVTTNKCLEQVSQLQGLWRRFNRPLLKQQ

B1: anti-TSLP Fab1 (Fab, V domains shown)
VH: EVQLVESGGGLVKPGGSLRLSCAASGFTFSDYWMHWVRQAPGKGLEWVGHIKSKTDAGTTDYAAPVKGRFTISRDDSKNTLYLQMNSLKTEDTAVYYCAREIYYYAFDSWGQGTLVTVSS
VL: SYELTQPLSVSVALGQTARITCSGDNIGSKYVHWYQQKPGQAPVLVIYGDNERPSGIPERFSGSNSGNTATLTISRAQAGDEADYYCQAADWVDFYVFGGGTKLTVLG
notes: also called anti-human TSLP Fab1; Fab fragment of MOR014824 (Mab1)
For B1, in experiment [1], the “IC50, TSLP-induced TARC secretion from human PBMC” value came to 0.0203 nM; the “IC50, luciferase reporter gene assay (Ba/F3 cells with hTSLPR, hIL7Rα and Stat5-luciferase)” value (“IC50, luciferase reporter gene assay” for short) stood at 0.0154 nM; the “mean IC50 (n=3), TSLP-induced TARC secretion from human PBMC” value was 0.0197 nM; the “mean IC50 (n=3), luciferase reporter gene assay” value stood at 0.0153 nM. The “IC50, luciferase reporter gene assay” value in experiment [2] came to 0.0171 nM. Moreover, in experiment [3], the “IC50, TSLP-induced MDC secretion from cyno PBMC” value amounted to 0.0555 nM; the “IC50, TSLP-induced TARC secretion from human PBMC” value stood at 0.0113 nM; the “IC50, luciferase reporter gene assay” value came out at 0.0108 nM; the “mean IC50 (n=3), TSLP-induced MDC secretion from cyno PBMC” value amounted to 0.0251 nM. Besides, in experiment [3], the “mean IC50 (n=3), TSLP-induced TARC secretion from human PBMC” value is 0.0111 nM and the “mean IC50 (n=3), luciferase reporter gene assay” value is 0.0095 nM. Further, in experiment [4], the Kd came out at 0.006 nM. In addition, the binding result in experiment [5] was “no binding (tested: 10 nM highest antigen concentration)”. In experiment [6], this molecule yielded a Kd of 0.005 nM. For the same molecule, in experiment [7], the Kd stood at 0.0014 nM.

B2: anti-TSLP Fab1 generated by papain digestion of anti-TSLP mAb1 (crystallography sample) (Fab, V domains shown)
VH: EVQLVESGGGLVKPGGSLRLSCAASGFTFSDYWMHWVRQAPGKGLEWVGHIKSKTDAGTTDYAAPVKGRFTISRDDSKNTLYLQMNSLKTEDTAVYYCAREIYYYAFDSWGQGTLVTVSS
VL: SYELTQPLSVSVALGQTARITCSGDNIGSKYVHWYQQKPGQAPVLVIYGDNERPSGIPERFSGSNSGNTATLTISRAQAGDEADYYCQAADWVDFYVFGGGTKLTVLG
modifications: pyroglutamic acid residue at the amino-terminus
notes: also called the Fab
On to B2, for which the binding result in experiment [8] was “binds”.
